Data from paper PMC9433092, “Closely related type II-C Cas9 orthologs recognize diverse PAMs”.

Tests used:
Experiment in all cases: HEK293T cells
Conditions in all cases: tags: NLS and HA tags, kept
NarCas9 = target: T1, NarCas9 (Neisseria arctica, UniProt A0A0J0YQ19)
T1 sequence: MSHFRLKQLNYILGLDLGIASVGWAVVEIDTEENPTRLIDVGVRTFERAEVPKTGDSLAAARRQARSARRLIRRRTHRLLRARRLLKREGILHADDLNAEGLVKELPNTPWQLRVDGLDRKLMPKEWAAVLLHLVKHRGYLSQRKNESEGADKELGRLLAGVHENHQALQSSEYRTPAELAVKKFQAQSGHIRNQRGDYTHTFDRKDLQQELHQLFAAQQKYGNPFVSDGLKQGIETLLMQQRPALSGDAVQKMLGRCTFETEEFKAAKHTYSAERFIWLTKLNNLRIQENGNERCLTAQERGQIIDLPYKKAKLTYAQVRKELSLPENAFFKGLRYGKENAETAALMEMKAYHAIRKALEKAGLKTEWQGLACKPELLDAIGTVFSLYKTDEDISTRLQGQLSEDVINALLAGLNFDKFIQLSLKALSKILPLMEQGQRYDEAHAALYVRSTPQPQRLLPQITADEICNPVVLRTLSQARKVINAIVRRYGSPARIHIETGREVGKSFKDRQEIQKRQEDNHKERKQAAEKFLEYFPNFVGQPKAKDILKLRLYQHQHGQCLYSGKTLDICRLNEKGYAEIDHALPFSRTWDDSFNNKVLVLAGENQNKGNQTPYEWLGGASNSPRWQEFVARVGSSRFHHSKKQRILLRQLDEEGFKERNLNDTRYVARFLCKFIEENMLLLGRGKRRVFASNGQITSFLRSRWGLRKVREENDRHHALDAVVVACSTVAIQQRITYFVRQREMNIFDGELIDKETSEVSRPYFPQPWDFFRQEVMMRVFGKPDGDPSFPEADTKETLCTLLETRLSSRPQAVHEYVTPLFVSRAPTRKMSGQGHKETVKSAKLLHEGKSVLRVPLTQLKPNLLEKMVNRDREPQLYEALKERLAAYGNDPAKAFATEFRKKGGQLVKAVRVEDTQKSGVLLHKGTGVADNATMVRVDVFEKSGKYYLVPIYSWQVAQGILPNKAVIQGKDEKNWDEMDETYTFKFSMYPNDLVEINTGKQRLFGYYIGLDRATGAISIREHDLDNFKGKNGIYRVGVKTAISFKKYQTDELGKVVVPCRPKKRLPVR

Nsp2-SmuCas9 = target: T2, Nsp2-SmuCas9 (synthetic)
T2 chain: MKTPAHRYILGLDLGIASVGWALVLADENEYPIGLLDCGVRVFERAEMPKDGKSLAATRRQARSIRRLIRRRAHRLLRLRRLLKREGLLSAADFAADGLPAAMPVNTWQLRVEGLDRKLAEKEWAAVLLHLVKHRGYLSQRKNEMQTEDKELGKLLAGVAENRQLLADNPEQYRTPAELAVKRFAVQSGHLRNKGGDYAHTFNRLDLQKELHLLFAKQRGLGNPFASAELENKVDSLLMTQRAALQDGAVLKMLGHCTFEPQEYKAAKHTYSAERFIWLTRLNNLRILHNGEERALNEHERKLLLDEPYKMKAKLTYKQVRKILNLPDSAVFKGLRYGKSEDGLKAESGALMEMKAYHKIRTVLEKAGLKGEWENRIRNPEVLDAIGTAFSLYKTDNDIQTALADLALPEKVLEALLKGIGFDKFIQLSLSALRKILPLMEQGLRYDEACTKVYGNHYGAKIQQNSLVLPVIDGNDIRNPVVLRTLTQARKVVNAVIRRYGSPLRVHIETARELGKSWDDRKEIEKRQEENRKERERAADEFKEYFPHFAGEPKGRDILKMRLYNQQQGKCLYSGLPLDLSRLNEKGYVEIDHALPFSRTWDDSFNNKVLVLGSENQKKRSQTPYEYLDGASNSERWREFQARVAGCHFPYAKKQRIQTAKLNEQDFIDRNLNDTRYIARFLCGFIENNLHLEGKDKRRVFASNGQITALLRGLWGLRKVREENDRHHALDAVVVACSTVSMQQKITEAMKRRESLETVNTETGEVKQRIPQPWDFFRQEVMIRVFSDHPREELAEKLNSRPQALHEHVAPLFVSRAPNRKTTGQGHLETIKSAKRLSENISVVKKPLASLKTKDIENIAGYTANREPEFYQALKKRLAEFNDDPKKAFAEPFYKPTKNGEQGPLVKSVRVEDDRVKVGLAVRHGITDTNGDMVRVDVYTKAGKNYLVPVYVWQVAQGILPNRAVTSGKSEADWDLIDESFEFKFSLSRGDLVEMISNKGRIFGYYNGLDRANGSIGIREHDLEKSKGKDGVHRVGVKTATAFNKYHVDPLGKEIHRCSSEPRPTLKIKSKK

Nme2-SmuCas9 = target: T3, Nme2-SmuCas9 (synthetic)
T3 chain: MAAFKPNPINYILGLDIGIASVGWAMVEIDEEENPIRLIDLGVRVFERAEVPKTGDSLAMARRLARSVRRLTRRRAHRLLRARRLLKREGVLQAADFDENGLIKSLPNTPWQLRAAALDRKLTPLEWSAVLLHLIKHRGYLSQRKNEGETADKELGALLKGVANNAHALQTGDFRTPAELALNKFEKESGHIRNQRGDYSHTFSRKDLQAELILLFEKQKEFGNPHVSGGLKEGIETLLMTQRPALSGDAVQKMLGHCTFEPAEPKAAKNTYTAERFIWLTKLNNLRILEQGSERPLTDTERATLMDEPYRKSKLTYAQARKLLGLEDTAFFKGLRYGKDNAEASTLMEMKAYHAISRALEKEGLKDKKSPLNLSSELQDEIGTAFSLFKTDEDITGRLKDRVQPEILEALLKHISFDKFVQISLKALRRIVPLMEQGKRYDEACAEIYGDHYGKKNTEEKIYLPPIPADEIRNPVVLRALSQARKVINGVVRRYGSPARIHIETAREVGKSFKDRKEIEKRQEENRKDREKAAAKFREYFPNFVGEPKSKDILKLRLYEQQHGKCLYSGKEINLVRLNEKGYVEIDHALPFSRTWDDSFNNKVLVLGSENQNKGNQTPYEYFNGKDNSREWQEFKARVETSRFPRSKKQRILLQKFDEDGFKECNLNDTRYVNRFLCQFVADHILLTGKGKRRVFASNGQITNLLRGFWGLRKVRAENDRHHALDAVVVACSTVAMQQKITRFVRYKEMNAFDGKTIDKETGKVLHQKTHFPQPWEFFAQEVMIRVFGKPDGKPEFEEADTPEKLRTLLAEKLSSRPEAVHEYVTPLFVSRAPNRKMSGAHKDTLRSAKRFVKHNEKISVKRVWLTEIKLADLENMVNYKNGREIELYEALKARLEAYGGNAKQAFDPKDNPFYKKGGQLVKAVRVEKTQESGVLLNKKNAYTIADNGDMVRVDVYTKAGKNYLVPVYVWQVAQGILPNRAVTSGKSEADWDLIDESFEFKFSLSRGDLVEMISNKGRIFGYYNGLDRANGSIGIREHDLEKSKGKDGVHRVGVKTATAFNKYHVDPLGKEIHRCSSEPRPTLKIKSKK

| Binder | indel frequency (NarCas9) | indel frequency (Nsp2-SmuCas9) | indel frequency (Nme2-SmuCas9) |
| --- | --- | --- | --- |
| AAVS1 TS1 (mixed) RNA: GCAGCAUAGGGUGGCAAAGCCCAGUUGUAGCUCCCUUUCUCAUUUCGGAAACGAAAUGAGAACCGUUGCUACAAUAAGGCCGUCUGAAAAGAUGUGCCGCAACGCUCUGCCCCUUAAAGCUUCUGCUUUAAGGGGCAUCGUUUAUUUUUUU DNA 1: CAGCATAGGGTGGCAAAGCCCAGGGCCAGG DNA 2: CCTGGCCCTGGGCTTTGCCACCCTATGCTG | 10.9 % indels | 16.7 % indels | – |
| AAVS1 TS2 (mixed) RNA: GCAGCGCAAAGUGACAAUGGCCAGUUGUAGCUCCCUUUCUCAUUUCGGAAACGAAAUGAGAACCGUUGCUACAAUAAGGCCGUCUGAAAAGAUGUGCCGCAACGCUCUGCCCCUUAAAGCUUCUGCUUUAAGGGGCAUCGUUUAUUUUUUU DNA 1: CAGCGCAAAGTGACAATGGCCAGGGCCAGG DNA 2: CCTGGCCCTGGCCATTGTCACTTTGCGCTG | – | 12.4 % indels | – |
| AAVS1 TS3 (mixed) RNA: GUCUGACCUGCAUUCUCUCCCCUGUUGUAGCUCCCUUUCUCAUUUCGGAAACGAAAUGAGAACCGUUGCUACAAUAAGGCCGUCUGAAAAGAUGUGCCGCAACGCUCUGCCCCUUAAAGCUUCUGCUUUAAGGGGCAUCGUUUAUUUUUUU DNA 1: TCTGACCTGCATTCTCTCCCCTGGGCCTGT DNA 2: ACAGGCCCAGGGGAGAGAATGCAGGTCAGA | 9.89 % indels | 17.9 % indels | – |
| AAVS1 TS4 (mixed) RNA: GCUGUCCCCUCCACCCCACAGUGGUUGUAGCUCCCUUUCUCAUUUCGGAAACGAAAUGAGAACCGUUGCUACAAUAAGGCCGUCUGAAAAGAUGUGCCGCAACGCUCUGCCCCUUAAAGCUUCUGCUUUAAGGGGCAUCGUUUAUUUUUUU DNA 1: CTGTCCCCTCCACCCCACAGTGGGGCCACT DNA 2: AGTGGCCCCACTGTGGGGTGGAGGGGACAG | 5.75 % indels | 6.53 % indels | – |
| AAVS1 TS5 (mixed) RNA: GGUCUGAGGGUGGAGGGACUGGGUUGUAGCUCCCUUUCUCAUUUCGGAAACGAAAUGAGAACCGUUGCUACAAUAAGGCCGUCUGAAAAGAUGUGCCGCAACGCUCUGCCCCUUAAAGCUUCUGCUUUAAGGGGCAUCGUUUAUUUUUUU DNA 1: GGTCTGAGGGTGGAGGGACTGGGGGCCTGG DNA 2: CCAGGCCCCCAGTCCCTCCACCCTCAGACC | 13.2 % indels | 17.8 % indels | 14.5 % indels |
| AAVS1 TS6 (mixed) RNA: GUGAACUGGAGUGUGACAGCCUGGUUGUAGCUCCCUUUCUCAUUUCGGAAACGAAAUGAGAACCGUUGCUACAAUAAGGCCGUCUGAAAAGAUGUGCCGCAACGCUCUGCCCCUUAAAGCUUCUGCUUUAAGGGGCAUCGUUUAUUUUUUU DNA 1: TGAACTGGAGTGTGACAGCCTGGGGCCCAG DNA 2: CTGGGCCCCAGGCTGTCACACTCCAGTTCA | – | 6.16 % indels | – |
| EMX1 TS9 (mixed) RNA: GUAAGACGAAUUGUAGAAAGGAGGUUGUAGCUCCCUUUCUCAUUUCGGAAACGAAAUGAGAACCGUUGCUACAAUAAGGCCGUCUGAAAAGAUGUGCCGCAACGCUCUGCCCCUUAAAGCUUCUGCUUUAAGGGGCAUCGUUUAUUUUUUU DNA 1: TAAGACGAATTGTAGAAAGGAGAGATCAC DNA 2: GTGATCTCTCCTTTCTACAATTCGTCTTA | – | 16 % indels | – |
| EMX1 TS10 (mixed) RNA: GACUGACUGGAUGUGCACAGCAGGUUGUAGCUCCCUUUCUCAUUUCGGAAACGAAAUGAGAACCGUUGCUACAAUAAGGCCGUCUGAAAAGAUGUGCCGCAACGCUCUGCCCCUUAAAGCUUCUGCUUUAAGGGGCAUCGUUUAUUUUUUU DNA 1: ACTGACTGGATGTGCACAGCAGTGACCG DNA 2: CGGTCACTGCTGTGCACATCCAGTCAGT | – | 5.48 % indels | – |
| EMX1 TS13 (mixed) RNA: GGUGGUAGAGGGAGCAGUAUGAGUUGUAGCUCCCUUUCUCAUUUCGGAAACGAAAUGAGAACCGUUGCUACAAUAAGGCCGUCUGAAAAGAUGUGCCGCAACGCUCUGCCCCUUAAAGCUUCUGCUUUAAGGGGCAUCGUUUAUUUUUUU DNA 1: GGTGGTAGAGGGAGCAGTATGAGAGTCTGG DNA 2: CCAGACTCTCATACTGCTCCCTCTACCACC | 18.4 % indels | 35.6 % indels | 12.2 % indels |
| EMX1 TS14 (mixed) RNA: GCCAAGACGGUGACCAGACUCAAGUUGUAGCUCCCUUUCUCAUUUCGGAAACGAAAUGAGAACCGUUGCUACAAUAAGGCCGUCUGAAAAGAUGUGCCGCAACGCUCUGCCCCUUAAAGCUUCUGCUUUAAGGGGCAUCGUUUAUUUUUUU DNA 1: CCAAGACGGTGACCAGACTCAAGTTACTGA DNA 2: TCAGTAACTTGAGTCTGGTCACCGTCTTGG | – | 16.5 % indels | – |
| GRIN2B TS17 (mixed) RNA: GUGCAGUUAGGGAAUAAGCCCCAGUUGUAGCUCCCUUUCUCAUUUCGGAAACGAAAUGAGAACCGUUGCUACAAUAAGGCCGUCUGAAAAGAUGUGCCGCAACGCUCUGCCCCUUAAAGCUUCUGCUUUAAGGGGCAUCGUUUAUUUUUUU DNA 1: TGCAGTTAGGGAATAAGCCCCAGTGTCAAG DNA 2: CTTGACACTGGGGCTTATTCCCTAACTGCA | 7.65 % indels | 23.2 % indels | – |
